Experiments:
Sgk promoter = test: Hyperosmotic stress stimulation of Sgk promoter and Sgk protein production; assay type: cell-based, mouse; details: sorbitol hyperosmotic stress
Description: Regulation of Sgk transcription, protein utilization and enzymatic activity defines a new cellular component of the hyperosmotic stress pathway. Using mouse NMuMg nontumorigenic mammary epithelial cells, we have established that Sgk is a new component of the hyperosmotic stress response. (The key observations can be repeated in HeLa cells, MCF-7 human breast cancer cells, kidney derived cell and rat fibroblasts). […] This hyperosmotic stress regulated element can confer the hyperosmotic stress response to a heterologous promoter. […] Using a generally similar series of experiments, we have also shown that exposure of mammary epithelial cells to 40 J/m^2 UV radiation causes a rapid but transient stimulation in Sgk protein levels that peaks approximately 2 hours after this genotoxic stress.
The hyperosmotic stress cascade targets the sgk promoter by activating the p38/MAPK stress kinase. […] Co-transfection of the stress responsive Sgk-CAT reporter plasmid with a dominant negative form of MKK3, one of two upstream kinase regulators of the p38/MAPK, inhibits the sorbitol induction of the Sgk promoter.

Sgk = test: In vitro peptide kinase assay (Sgktide, [32P]ATP) of immunoprecipitated HA-Sgk; assay type: biochemical; details: for effect of cell treatment on Sgk enzymatic activity: activators or inhibitor of PI 3-kinase pathway; for kinase activity / activation of Sgk mutant: mutant forms of Sgk
Description: Sgk is a component of the PI3 kinase cascade and is directly activated by PDK1 mediated phosphorylation of threonine 256 in the activation loop. […] To develop this kinase assay, lysates from human embryo kidney 293 cells transfected to express wild type hemagglutinin (HA)-tagged Sgk (HA-Sgk) were isolated and the Sgk immunoprecipitated with HA antibodies was used to screen a synthetic peptide library for identifying potential Sgk substrates. The immunoprecipitates were extensively washed, and incubated with the peptide in the presence of [^32P]ATP in kinase buffer (Park et al 1999). Sgk phosphorylated several peptides, and the best substrate for Sgk was KKRNRRLSVA (SEQ ID NO:01), which is named Sgktide. […] This substrate specificity is generally similar to, but not identical, with the substrate specificity for Akt, which is a well characterized down stream component of the PI 3 kinase pathway.
Cotransfection of PDK1 with Sgk caused a 6-fold activation of Sgk activity, whereas, the kinase-dead form of PDK1 had no effect. […] The Ser-78 in the amino terminal domain is a third phosphorylation site and expression of the S78G Sgk mutation ablates the presence of the slowest migrating form of phosphorylated Sgk in SDS polyacrylamide gels.

mammary tumor cells = test: Transient cell foci growth assay of transfected mammary tumor cells; assay type: cell-based; details: transfected expression vector
Description: Functional evidence for a direct role of sgk in the glucocorticoid anti-proliferative pathway. In both the Con8 mammary epithelial tumor cells (from which Sgk was originally cloned) as well as human MCF-7 breast cancer cells (which were originally derived from a pleural effusion of a metastatic human breast adenocarcinoma) glucocorticoids induce a G1 block in cell cycle progression and strongly stimulate sgk transcript and protein production. […] To initially test whether Sgk has an anti-proliferative function and perhaps mediates the glucocorticoid growth inhibitory response, the full length rat or human wild type sgk cDNA was inserted downstream of the cytomegalovirus (CMV) promoter in an expression vector that also encodes the neomycin resistance gene. […] Transfection competent cells were selected in 0.5 mg/ml of the G418 neomycin derivative for two weeks.
Expression vectors encoding several point mutants or truncations of Sgk were transfected into the mammary tumor cells and cell growth monitored by the cell foci assay.
Transient transfection and rapid screen of the sgk expression vectors for the anti-proliferative response in rodent and human mammary tumor cells. A transient cell foci growth assay is employed to rapidly screen the various Sgk constructs to define the domains that mediate the anti-proliferative response in rat and human mammary tumor cells using our optimized conditions. The advantage of this assay is that many different mutant Sgk expression vectors can be simultaneously compared for their growth inhibitory effects. Also, this assay can be used to rapidly assess the proliferative effects of combinations of Sgk and its interacting proteins or substrates. Populations of human MCF-7 breast cancer cells or rat Con8 mammary tumor cells are transfected by the lipofectin transfection procedures and cultured in normally cytotoxic concentrations (750 μg/ml) of the G418 neomycin derivative to recover transfection competent cells. Approximately 5000 transfected cells are cultured as colonies on plastic, and after one to two weeks are fixed and stained in crystal violet/formalin to visualize the cell colonies. The effects on cell proliferation are quantitated by simply counting the resulting cell colonies or by scanning the total cell density on each plate. To provide a control for the fidelity of the cell foci assays, in each experiment, cells transfected with the control vectors (no Sgk sequences) are treated with or without 1 μM dexamethasone because the cells are growth suppressed by this synthetic glucocorticoid. […]

**Q.** Which “hyperosmotic stress-stimulation of the Sgk promoter and Sgk protein production” value (Sgk promoter) does the source give for `C[S+]([O-])c1ccc(-c2nc(-c3ccncc3)c(-c3ccc(F)cc3)[nH]2)cc1` (stereo not drawn) [SB203580] here?
**A.** dampens the hyperosmotic stress-stimulation of the Sgk promoter and Sgk protein production

**Q.** How did the “effect of cell treatment on Sgk enzymatic activity” value (from here on “effect of cell treatment”) (Sgk) turn out when pervanadate [reference compound] was run?
**A.** stimulated Sgk enzymatic activity

**Q.** “insulin: hormonal activator of the PI 3-kinase pathway [reference compound]” was tested. Which “effect of cell treatment” value (Sgk) did it give?
**A.** stimulated Sgk enzymatic activity

**Q.** For “IGF-1: hormonal activator of the PI 3-kinase pathway [reference compound]”, which “effect of cell treatment” value (Sgk) is on record?
**A.** stimulated Sgk enzymatic activity

**Q.** With `Oc1ccc(-c2nc(-c3ccncc3)c(-c3ccc(F)cc3)[nH]2)cc1` [SB202190] as the molecule, how does the “hyperosmotic stress-stimulation of the Sgk promoter and Sgk protein production” value (Sgk promoter) read?
**A.** dampens the hyperosmotic stress-stimulation of the Sgk promoter and Sgk protein production

B1: N60–431: N-terminal truncated Sgk (protein, UniProt O00141 60-431, looked up, fragment)
chain: ISQPQEPELMNANPSPPPSPSQQINLGPSSNPHAKPSDFHFLKVIGKGSFGKVLLARHKAEEVFYAVKVLQKKAILKKKEEKHIMSERNVLLKNVKHPFLVGLHFSFQTADKLYFVLDYINGGELFYHLQRERCFLEPRARFYAAEIASALGYLHSLNIVYRDLKPENILLDSQGHIVLTDFGLCKENIEHNSTTSTFCGTPEYLAPEVLHKQPYDRTVDWWCLGAVLYEMLYGLPPFYSRNTAEMYDNILNKPLQLKPNITNSARHLLEGLLQKDRTKRLGAKDDFMEIKSHVFFSLINWDDLINKKITPPFNPNVSGPNDLRHFDPEFTEEPVPNSIGKSPDSVLVTASVKEAAEAFLGFSYAPPTDSFL
**Q.** B1 was tested. Which “effect on cell growth (cell foci assay)” value (mammary tumor cells) did it give?
**A.** more effectively suppresses tumor cell growth compared to the full length Sgk protein

B2: C1–355: C-terminal Sgk truncation missing the last 75 amino acids (protein, UniProt O00141 1-355, looked up, fragment)
chain: MTVKTEAAKGTLTYSRMRGMVAILIAFMKQRRMGLNDFIQKIANNSYACKHPEVQSILKISQPQEPELMNANPSPPPSPSQQINLGPSSNPHAKPSDFHFLKVIGKGSFGKVLLARHKAEEVFYAVKVLQKKAILKKKEEKHIMSERNVLLKNVKHPFLVGLHFSFQTADKLYFVLDYINGGELFYHLQRERCFLEPRARFYAAEIASALGYLHSLNIVYRDLKPENILLDSQGHIVLTDFGLCKENIEHNSTTSTFCGTPEYLAPEVLHKQPYDRTVDWWCLGAVLYEMLYGLPPFYSRNTAEMYDNILNKPLQLKPNITNSARHLLEGLLQKDRTKRLGAKDDFMEIKSHVFF
**Q.** How did the “effect on cell growth (cell foci assay)” value (mammary tumor cells) turn out when B2 was run?
**A.** little or no effect on cell growth

B3: T256D/S422D: Sgk double mutation T256D and S422D (protein, UniProt O00141 1-431, looked up, variant T256D S422D)
Serine/threonine-protein …: MTVKTEAAKGTLTYSRMRGMVAILIAFMKQRRMGLNDFIQKIANNSYACKHPEVQSILKISQPQEPELMNANPSPPPSPSQQINLGPSSNPHAKPSDFHFLKVIGKGSFGKVLLARHKAEEVFYAVKVLQKKAILKKKEEKHIMSERNVLLKNVKHPFLVGLHFSFQTADKLYFVLDYINGGELFYHLQRERCFLEPRARFYAAEIASALGYLHSLNIVYRDLKPENILLDSQGHIVLTDFGLCKENIEHNSTTSDFCGTPEYLAPEVLHKQPYDRTVDWWCLGAVLYEMLYGLPPFYSRNTAEMYDNILNKPLQLKPNITNSARHLLEGLLQKDRTKRLGAKDDFMEIKSHVFFSLINWDDLINKKITPPFNPNVSGPNDLRHFDPEFTEEPVPNSIGKSPDSVLVTASVKEAAEAFLGFDYAPPTDSFL
**Q.** B3 was tested. Which “kinase activity / activation of Sgk mutant” value (“kinase activity / activation” for short) (Sgk) did it give?
**A.** not constitutively active

B4: T256A: Sgk with threonine 256 in the activation loop changed to alanine (protein, UniProt O00141 1-431, looked up, variant T256A)
Serine/threonine-protein …: MTVKTEAAKGTLTYSRMRGMVAILIAFMKQRRMGLNDFIQKIANNSYACKHPEVQSILKISQPQEPELMNANPSPPPSPSQQINLGPSSNPHAKPSDFHFLKVIGKGSFGKVLLARHKAEEVFYAVKVLQKKAILKKKEEKHIMSERNVLLKNVKHPFLVGLHFSFQTADKLYFVLDYINGGELFYHLQRERCFLEPRARFYAAEIASALGYLHSLNIVYRDLKPENILLDSQGHIVLTDFGLCKENIEHNSTTSAFCGTPEYLAPEVLHKQPYDRTVDWWCLGAVLYEMLYGLPPFYSRNTAEMYDNILNKPLQLKPNITNSARHLLEGLLQKDRTKRLGAKDDFMEIKSHVFFSLINWDDLINKKITPPFNPNVSGPNDLRHFDPEFTEEPVPNSIGKSPDSVLVTASVKEAAEAFLGFSYAPPTDSFL
**Q.** For B4, which “reduction in number of cell foci compared to the vector control” value (mammary tumor cells; G418 selection) is on record?
**A.** 20 fold

B5: S422D: Sgk with serine 422 changed to aspartate (protein, UniProt O00141 1-431, looked up, variant S422D)
Serine/threonine-protein …: MTVKTEAAKGTLTYSRMRGMVAILIAFMKQRRMGLNDFIQKIANNSYACKHPEVQSILKISQPQEPELMNANPSPPPSPSQQINLGPSSNPHAKPSDFHFLKVIGKGSFGKVLLARHKAEEVFYAVKVLQKKAILKKKEEKHIMSERNVLLKNVKHPFLVGLHFSFQTADKLYFVLDYINGGELFYHLQRERCFLEPRARFYAAEIASALGYLHSLNIVYRDLKPENILLDSQGHIVLTDFGLCKENIEHNSTTSTFCGTPEYLAPEVLHKQPYDRTVDWWCLGAVLYEMLYGLPPFYSRNTAEMYDNILNKPLQLKPNITNSARHLLEGLLQKDRTKRLGAKDDFMEIKSHVFFSLINWDDLINKKITPPFNPNVSGPNDLRHFDPEFTEEPVPNSIGKSPDSVLVTASVKEAAEAFLGFDYAPPTDSFL
**Q.** Which “kinase activity / activation” value (Sgk) does the source give for B5 here?
**A.** partially active

B6: T256D: Sgk with threonine 256 changed to aspartate (protein, UniProt O00141 1-431, looked up, variant T256D)
Serine/threonine-protein …: MTVKTEAAKGTLTYSRMRGMVAILIAFMKQRRMGLNDFIQKIANNSYACKHPEVQSILKISQPQEPELMNANPSPPPSPSQQINLGPSSNPHAKPSDFHFLKVIGKGSFGKVLLARHKAEEVFYAVKVLQKKAILKKKEEKHIMSERNVLLKNVKHPFLVGLHFSFQTADKLYFVLDYINGGELFYHLQRERCFLEPRARFYAAEIASALGYLHSLNIVYRDLKPENILLDSQGHIVLTDFGLCKENIEHNSTTSDFCGTPEYLAPEVLHKQPYDRTVDWWCLGAVLYEMLYGLPPFYSRNTAEMYDNILNKPLQLKPNITNSARHLLEGLLQKDRTKRLGAKDDFMEIKSHVFFSLINWDDLINKKITPPFNPNVSGPNDLRHFDPEFTEEPVPNSIGKSPDSVLVTASVKEAAEAFLGFSYAPPTDSFL
**Q.** Which “kinase activity / activation” value (Sgk) does the source give for B6 here?
**A.** partially active

B7: S422A: Sgk with serine 422 changed to alanine (protein, UniProt O00141 1-431, looked up, variant S422A)
Serine/threonine-protein …: MTVKTEAAKGTLTYSRMRGMVAILIAFMKQRRMGLNDFIQKIANNSYACKHPEVQSILKISQPQEPELMNANPSPPPSPSQQINLGPSSNPHAKPSDFHFLKVIGKGSFGKVLLARHKAEEVFYAVKVLQKKAILKKKEEKHIMSERNVLLKNVKHPFLVGLHFSFQTADKLYFVLDYINGGELFYHLQRERCFLEPRARFYAAEIASALGYLHSLNIVYRDLKPENILLDSQGHIVLTDFGLCKENIEHNSTTSTFCGTPEYLAPEVLHKQPYDRTVDWWCLGAVLYEMLYGLPPFYSRNTAEMYDNILNKPLQLKPNITNSARHLLEGLLQKDRTKRLGAKDDFMEIKSHVFFSLINWDDLINKKITPPFNPNVSGPNDLRHFDPEFTEEPVPNSIGKSPDSVLVTASVKEAAEAFLGFAYAPPTDSFL
**Q.** For B7, which “kinase activity / activation” value (Sgk) is on record?
**A.** inhibited Sgk activation

— patent US7087392B2, “Antiproliferative SgK reagents and methods” (The Regents of the University of California, priority 1999, dated 2006)
